Results on one substance are retold here after publication PMC4899722.

Assay [1] concerns the target ASIC1a-2a-1a concatamer (rat) (UniProt P55926).
The target in assay [2] is heteromeric ASIC1a/2a (oocytes co-expressing ASIC1a and ASIC2a) (rat) (UniProt P55926).
The target of assay [3] is ASIC1a-2a-2a concatamer (rat) (UniProt P55926).

With “psalmotoxin 1 (PcTx1) (from UniProt P60514 1-40) (peptide)”, the figures for the current left after 50 nM PcTx1 in the conditioning solution (pH 6.95), activation with pH 4.0, two-electrode voltage clamp in Xenopus oocytes; percent of the first current amplitude in assay [1], in assay [2] and in assay [3] were 15.7%, 66.5% and 64.8%, respectively.
